In patent publication US7172876B2, “Method of screening therapeutic agents for nerve degeneration associated diseases” (Takeda Pharmaceutical Company Limited, priority 2002, dated 2007):
Numbering of substitutions follows the chain as printed. Ends that are not written are not given here. * marks the point of attachment. For = O=C*

Key:
FPRL1 [1] = target: T1, FPRL1 (Homo sapiens, UniProt P25090); conditions: reported in the literature; cited from earlier work
T1 sequence (P25090 1-351): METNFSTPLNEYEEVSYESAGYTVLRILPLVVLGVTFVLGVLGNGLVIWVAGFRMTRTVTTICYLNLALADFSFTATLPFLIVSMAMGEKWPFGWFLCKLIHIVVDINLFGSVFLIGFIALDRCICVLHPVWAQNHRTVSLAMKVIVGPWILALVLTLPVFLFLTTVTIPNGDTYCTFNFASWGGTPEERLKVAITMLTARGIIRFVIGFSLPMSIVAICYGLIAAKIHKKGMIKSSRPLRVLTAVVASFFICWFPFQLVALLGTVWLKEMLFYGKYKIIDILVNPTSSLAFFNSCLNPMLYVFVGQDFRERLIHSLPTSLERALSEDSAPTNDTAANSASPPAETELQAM

rFPRL1 = experiment: Inhibition of forskolin-increased intracellular cAMP in rat FPRL1-expressing CHO cells; assay type: cell-based; conditions: 1 μM forskolin
Protocol: (§1) CHO cells expressing each receptor were washed with an assay medium (HBSS (GibcoBRL) supplemented with 0.1% bovine serum albumin and 0.2 mM IBMX) and then cultured at 37° C. in 5% CO2 for 30 minutes. Humanin (Peptide Research Laboratory, Co.) or related substances diluted at each concentration with the assay buffer were added thereto, and then forskolin was added at a final concentration of 1 μM. The cells were cultured at 37° C. in 5% CO2 for 30 minutes. The culture supernatant was discarded, and the amount of cAMP in the cells was measured with a plate reader (ARVO sx multi-label counter, manufactured by Wallac) according to a protocol of a cAMP screen kit (Applied Biosystems). Assuming that the amount of cAMP produced in the cells to which 1 μM forskolin had been added was 100% and the amount of cAMP produced in the cells to which forskolin had not been added was 0%, the amount of cAMP upon addition of each agonist is shown in %. The concentration at which the amount of cAMP produced was inhibited by 50% (EC50) was calculated from logit-log plotting.

mFPRL2 = target: T2, mFPRL2 (Mus musculus, UniProt O88536); experiment: Inhibition of forskolin-increased intracellular cAMP in mouse FPRL2-expressing CHO cells; assay type: cell-based; conditions: 1 μM forskolin
T2 construct: expressed in transfected cells; host or cells: CHO cells (clone No. 15); expression vector pAKKO-111H
T2 sequence (O88536 1-351): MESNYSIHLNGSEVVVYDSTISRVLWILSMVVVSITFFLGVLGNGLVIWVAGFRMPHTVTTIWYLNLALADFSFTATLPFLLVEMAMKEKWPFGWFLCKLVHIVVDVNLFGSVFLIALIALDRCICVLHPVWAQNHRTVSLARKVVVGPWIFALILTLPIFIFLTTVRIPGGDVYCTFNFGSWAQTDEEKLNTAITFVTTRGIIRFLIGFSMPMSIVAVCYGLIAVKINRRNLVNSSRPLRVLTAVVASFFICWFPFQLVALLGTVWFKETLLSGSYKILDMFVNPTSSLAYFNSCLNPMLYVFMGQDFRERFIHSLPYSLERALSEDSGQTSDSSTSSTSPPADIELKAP
Protocol: as §1

FPRL1 [2] = target: T1, FPRL1; experiment: Inhibition of forskolin-increased intracellular cAMP in human FPRL1-expressing CHO cells; assay type: cell-based; set-up: expressed in transfected cells; host or cells: CHO cells (clone No. 8; the title also lists a 'Human FPRL1' clone No. 14); conditions: 1 μM forskolin
hFPRL2 = target: T3, hFPRL2 (Homo sapiens, UniProt P25089); experiment: Inhibition of forskolin-increased intracellular cAMP in human FPRL2-expressing CHO cells; assay type: cell-based; conditions: 1 μM forskolin
T3 construct: expressed in transfected cells; host or cells: CHO cells (clone No. 17)
T3 sequence (P25089 1-353 G94A/S211T/D338H): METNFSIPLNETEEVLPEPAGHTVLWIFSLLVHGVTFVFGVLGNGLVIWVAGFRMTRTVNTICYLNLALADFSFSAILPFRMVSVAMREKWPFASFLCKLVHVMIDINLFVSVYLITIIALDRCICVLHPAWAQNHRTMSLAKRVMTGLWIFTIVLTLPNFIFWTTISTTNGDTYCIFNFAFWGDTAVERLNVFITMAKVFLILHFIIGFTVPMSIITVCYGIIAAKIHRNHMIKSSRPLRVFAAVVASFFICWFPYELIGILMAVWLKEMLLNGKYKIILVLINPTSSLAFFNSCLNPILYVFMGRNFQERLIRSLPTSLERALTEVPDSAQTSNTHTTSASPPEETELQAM
Protocol: as §1

nerve cells = conditions: reported in the literature; cited from earlier work
FPRL1-GFP = experiment: Inhibition of forskolin-increased intracellular cAMP in CHO cells expressing FPRL1-GFP; assay type: cell-based; conditions: 1 μM forskolin; CHO cells expressing FPRL1-GFP compared with mock CHO cells (vector only)
Protocol: CHO cells expressing FPRL1-GFP were washed with an assay medium (HBSS (GibcoBRL) supplemented with 0.1% bovine serum albumin and 0.2 mM IBMX) and then cultured at 37° C. in 5% CO2 for 30 minutes. Humanin (Peptide Research Laboratory, Co.) or related substances diluted at each concentration with the assay buffer were added thereto, and then forskolin was added at a final concentration of 1 μM. The cells were cultured at 37° C. in 5% CO2 for 30 minutes. The culture supernatant was discarded, and the amount of cAMP in the cells was measured with a plate reader (ARVO sx multi-label counter, manufactured by Wallac) according to a protocol of a cAMP screen kit (Applied Biosystems).

FPRL2 [3] = target: T4, FPRL2 (Homo sapiens, UniProt P25089); conditions: reported in the literature; cited from earlier work
T4 sequence (P25089 1-353): T3 sequence (P25089 1-353 G94A/S211T/D338H) with A94G, T211S, H338D

FPRL2 [4] = target: T4, FPRL2; conditions: reported in the literature; cited from earlier work; remark: listed apart in the source

rFPRL1, sequence (as listed by the source): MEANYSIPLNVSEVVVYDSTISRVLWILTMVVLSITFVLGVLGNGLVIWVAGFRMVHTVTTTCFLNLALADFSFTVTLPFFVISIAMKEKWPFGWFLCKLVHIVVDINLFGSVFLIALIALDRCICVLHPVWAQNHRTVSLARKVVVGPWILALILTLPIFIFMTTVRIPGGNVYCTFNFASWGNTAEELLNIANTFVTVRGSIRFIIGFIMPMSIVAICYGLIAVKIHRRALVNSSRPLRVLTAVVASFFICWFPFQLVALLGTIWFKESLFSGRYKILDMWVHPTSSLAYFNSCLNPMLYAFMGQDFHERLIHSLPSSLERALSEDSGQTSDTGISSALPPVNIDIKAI

## Aβ42: β-amyloid (1-42), intrinsic substance reported as agonist of FPRL1
FPRL1 [1]
  agonist of FPRL1: agonist

## mt-formyl-Humanin: human humanin (1-21), SEQ ID NO: 6, wherein Met at the N-terminus is formylated (For-MAPRGFSCLLLLTSEIDLPVK)
rFPRL1
  reaction with rFPRL1 (inhibition of forskolin-increased intracellular cAMP): react
mFPRL2
  reaction with mFPRL2 (inhibition of forskolin-increased intracellular cAMP): react
FPRL1 [2]
  reaction with hFPRL1 (inhibition of forskolin-increased intracellular cAMP): strongly

## mt-formyl-rattin: rat humanin (1-21), SEQ ID NO: 9, wherein Met at the N-terminus is formylated (For-MAKRGFNCLLLSISEIDLPVK)
rFPRL1
  reaction with rFPRL1 (inhibition of forskolin-increased intracellular cAMP): react
mFPRL2
  reaction with mFPRL2 (inhibition of forskolin-increased intracellular cAMP): react
FPRL1 [2]
  reaction with hFPRL1 (inhibition of forskolin-increased intracellular cAMP): strongly

## formyl-Humanin: human humanin (1-24), SEQ ID NO: 3, wherein Met of the N-terminus is formylated
rFPRL1
  reaction with rFPRL1 (inhibition of forskolin-increased intracellular cAMP): react
mFPRL2
  reaction with mFPRL2 (inhibition of forskolin-increased intracellular cAMP): react

## [Gly^14]-humanin: [Gly^14]-human humanin (1-24) consisting of the amino acid sequence represented by SEQ ID NO: 4 (MAPRGFSCLLLLTGEIDLPVKRRA; Human)
hFPRL2
  reaction with hFPRL2 (inhibition of forskolin-increased intracellular cAMP): strongly
rFPRL1
  reaction with rFPRL1 (inhibition of forskolin-increased intracellular cAMP): react
mFPRL2
  reaction with mFPRL2 (inhibition of forskolin-increased intracellular cAMP): react
FPRL1 [2]
  reaction with hFPRL1 (inhibition of forskolin-increased intracellular cAMP): react

## humanin: human humanin (1-24) consisting of the amino acid sequence represented by SEQ ID NO: 3
Nerve cells
  death of nerve cells into which the familial Alzheimer's disease gene had been introduced: inhibited
  nerve apotosis induced by adding β-amyloid: inhibited
hFPRL2
  reaction with hFPRL2 (inhibition of forskolin-increased intracellular cAMP): strongly
rFPRL1
  reaction with rFPRL1 (inhibition of forskolin-increased intracellular cAMP): react
mFPRL2
  reaction with mFPRL2 (inhibition of forskolin-increased intracellular cAMP): react
FPRL1-GFP
  decrease of the amount of intracellular cAMP increased by addition of forskolin: dose-dependent and specific decrease
FPRL1 [2]
  reaction with hFPRL1 (inhibition of forskolin-increased intracellular cAMP): react

## formyl-Met-Leu-Phe [fMLF]
FPRL2 [3]
  reaction of human FPRL2 with fMLF: does not react

## CCCCC[C@H](O)/C=C/C=C\C=C\C=C\[C@@H](O)[C@@H](O)CCCC(=O)O [lipoxin A4]
FPRL1 [1]
  agonist of FPRL1: Agonists

## Trp-Lys-Tyr-Met-Val-dMet-NH2 [W-Peptide]
FPRL2 [4]
  agonist of FPRL2: agonist
